Source: publication PMC6391921

Tests used:
Experiment in all cases: BLI
[1] = biological target: H7ssF_E, H7 stabilized HA stem ferritin nanoparticle, design E (influenza A virus A/Shanghai/2/2013 (H7N9) | not stated) (UniProt Q9ZLI1)
[2] = biological target: H7ssF_B, H7 stabilized HA stem ferritin nanoparticle, design B (influenza A virus A/Shanghai/2/2013 (H7N9) | not stated) (UniProt Q9ZLI1)
[3] = biological target: H7ssF_J, H7 stabilized HA stem ferritin nanoparticle, design J (influenza A virus A/Shanghai/2/2013 (H7N9) | not stated) (UniProt Q9ZLI1)
[4] = biological target: H7ssF_C, H7 stabilized HA stem ferritin nanoparticle, design C (influenza A virus A/Shanghai/2/2013 (H7N9) | not stated) (UniProt Q9ZLI1)
[5] = biological target: H7ssF_I, H7 stabilized HA stem ferritin nanoparticle, design I (influenza A virus A/Shanghai/2/2013 (H7N9) | not stated) (UniProt Q9ZLI1)
[6] = biological target: H7ssF_D, H7 stabilized HA stem ferritin nanoparticle, design D (influenza A virus A/Shanghai/2/2013 (H7N9) | not stated) (UniProt Q9ZLI1)
[7] = biological target: H7ssF_F, H7 stabilized HA stem ferritin nanoparticle, design F (influenza A virus A/Shanghai/2/2013 (H7N9) | not stated) (UniProt Q9ZLI1)

CT149 Fab
Kd [1]: 8.2 nM
koff [1]: 0.003 s⁻¹
kon [1]: 370000 M⁻¹ s⁻¹
Kd [2]: 7 nM
koff [2]: 0.003 s⁻¹
kon [2]: 420000 M⁻¹ s⁻¹
Kd [3]: 9.8 nM
koff [3]: 0.0034 s⁻¹
kon [3]: 350000 M⁻¹ s⁻¹
Kd [4]: 0.9 nM
koff [4]: 0.00053 s⁻¹
kon [4]: 600000 M⁻¹ s⁻¹
Kd [5]: 7.2 nM
koff [5]: 0.0029 s⁻¹
kon [5]: 410000 M⁻¹ s⁻¹
Kd [6]: 9 nM
koff [6]: 0.0033 s⁻¹
kon [6]: 370000 M⁻¹ s⁻¹
Kd [7]: 2.7 nM
koff [7]: 0.0018 s⁻¹
kon [7]: 670000 M⁻¹ s⁻¹
